Test results taken from publication PMC11053944, “FRET Assays for the Identification of C. albicans HSP90-Sba1 and Human HSP90α-p23 Binding Inhibitors” (Pharmaceuticals, 2024).

What was measured:
[1] = biological target: T1, human HSP90α-mNeonGreen–p23-mScarlet-I binding (Homo sapiens, UniProt P07900, E47A); test: FRET characterization of model inhibitors and ATP on human HSP90α-p23 binding; settings: 5 mM ATP
T1 construct: made in house; host or cells: E. coli Rosetta2(DE3) pLysS
Protocol: In this investigation, 1 µM HSP90-mNeonGreen was incubated with 2 µM Sba1-mScarlet-I in reaction buffer containing 5 mM ATP either alone (UC) or with the addition of 20 µM Sba1. As a negative control, samples containing 20 µM bovine serum albumin (BSA) were used.
FRET experiments were carried out in 384-well microtiter plates (Art. No. 3766 Corning, NY, USA, or Art. No. 781906, Greiner Bio-One GmbH, Frickenhausen, Germany) containing a final volume of 20 µL and measured with a microplate reader Infinite M200Pro (Tecan, Männedorf, Switzerland). The fluorescence was measured in three channels: excitation (ex.): 488 nm/emission (em.): 525 nm (mNeonGreen fluorescence), ex.: 561 nm/em.: 610 nm (mScarlet-I fluorescence) and the FRET channel ex.: 488 nm/em.: 610 nm. The excitation and emission bandwidths were set to 9 and 20 nm, respectively. Experiments for the determination of the equilibrium dissociation constants were performed with a filter-based microplate reader Infinite F200Pro (Tecan, Männedorf, Switzerland). The fluorescence was measured in three channels using the following filters: ex.: 485 ± 20 nm/em.: 535 ± 20 nm (mNeonGreen channel), ex.: 535 ± 20 nm/em.: 612 ± 10 nm (mScarlet-I channel) and the FRET channel ex.: 485 ± 20 nm/em.: 612 ± 10 nm. FRET emission (EmFRET) was calculated according to Song et al. 2011 [81]:(1) EmFRET=FLDA−x×FLDD−(y×FLAA) where FLDA is the fluorescence signal of the FRET channel and FLDD and FLAA are fluorescence signals from the mNeonGreen and mScarlet-I channels, respectively. The correction factors x and y were calculated as follows:(2) x=FLDA/FLDD for samples containing only the donor fluorophore or fluorescent fusion proteins with mNeonGreen and (3) y=FLDA/FLAA for samples containing only the acceptor fluorophore or fluorescent fusion proteins with mScarlet-I in the same concentration as samples containing both the donor and acceptor.
All experiments were carried out in reaction buffer (40 mM HEPES/KOH pH 7.5, 20 mM KCl, 5 mM MgCl2, 20 mM Na2MoO4, Triton-X 100 0.1%). HEPES and KCl were purchased from AppliChem, Darmstadt, Germany. KOH and MgCl2 were obtained from VWR Chemicals, Darmstadt, Germany. Na2MoO4 was from Merck, Darmstadt, Germany. Triton-X 100 was purchased from Serva, Heidelberg, Germany.
For C. albicans Sba1 competition experiments for HSP90-mNeonGreen–Sba1-mScarlet-I binding, 1 µM HSP90-mNeonGreen and 1 µM Sba1-mScarlet-I were incubated with varying concentrations of Sba1 in a range of 0–25,000 nM (lowest non-zero concentration 12 nM) in reaction buffer containing 5 mM ATP. The experiment was performed twice in nonaplicates. For human p23 competition experiments for HSP90α-mNeonGreen–p23-mScarlet-I binding, 1 µM HSP90α-mNeonGreen and 1 µM p23-mScarlet-I were incubated with varying concentrations of p23 in a range of 0–50 000 nM (lowest non-zero concentration 23 nM) in reaction buffer containing 5 mM ATP. The experiment was performed twice in hexaplicates. […] The experiment was performed thrice in triplicates. […] The IC50,rel values were calculated using the equation log (inhibitor) vs. response-variable slope (four parameters) in GraphPad Prism 5. Ki values for inhibition of HSP90-mNeonGreen–Sba1-mScarlet-I/p23-mScarlet-I binding by non-labeled Sba1/p23 were calculated with One Site—Fit Ki in GraphPad Prism 5. […] The EC50,rel values were calculated using the log (agonist) vs. response-variable slope (four parameters) equation in GraphPad Prism 5.

human HSP90α–p23 binding = biological target: T2, human HSP90α–p23 binding (Homo sapiens, UniProt P07900); test: FRET inhibitor screening assay, human HSP90α-p23 binding; settings: 10 or 100 µM, triplicates, 3 mM ATP, 1% DMSO, 15 min 37 °C
T2 construct: made in house; host or cells: E. coli Rosetta2(DE3) pLysS
From the text: We used the Z′ factor (Z′) to optimize the FRET assays for screening purposes. Z′ represents a simple statistical parameter for the quality assessment and optimization of HTS assays and screening assays in general. It is a measure that determines the degree of signal separation between binding and non-binding data sets. Calculation of the Z′ factor is based on the standard deviation of the individual data sets as well as their general signal separation. Values ≥ 0.5 can be classified as excellent for screening purposes. […] When the fluorescent fusion proteins of HSP90 and co-chaperones bind to each other, FRET occurs between donor and acceptor fluorophores, and the sensitized emission (EmFRET) signal increases. Consequently, the fluorescence intensity of the donor decreases (FLDD). […] We defined the ‘hit threshold’ as a decrease in readout signal of more than 3 standard deviations (SDs) from the mean signal of the binding control. This constitutes a common threshold for hit identification in HTS campaigns.
The excitation and emission bandwidths were set to 9 and 20 nm, respectively. Experiments for the determination of the equilibrium dissociation constants were performed with a filter-based microplate reader Infinite F200Pro (Tecan, Männedorf, Switzerland). […] The correction factors x and y were calculated as follows:(2) x=FLDA/FLDD for samples containing only the donor fluorophore or fluorescent fusion proteins with mNeonGreen and (3) y=FLDA/FLAA for samples containing only the acceptor fluorophore or fluorescent fusion proteins with mScarlet-I in the same concentration as samples containing both the donor and acceptor.
For screening for the identification of ATP-competitive C. albicans HSP90 and HSP90-Sba1 binding inhibitors, 10 µL of HSP90-mNeonGreen (2 µM) and Sba1-mScarlet-I (4 µM) in HEPES buffer (40 mM HEPES/KOH pH 7.5, 20 mM KCl) was mixed with 10 µL of 200 µM compound solution in 2x reaction buffer (40 mM HEPES/KOH pH 7.5, 20 mM KCl, 10 mM MgCl2, 40 mM Na2MoO4, Triton-X 100 0.2%), 6 mM ATP, 2% DMSO, resulting ultimately in constant HSP90-mNeonGreen concentrations of 1 µM and Sba1-mScarlet-I 2 µM in reaction buffer. Samples for binding control (3 mM ATP, final concentration) and non-binding control (no ATP) were prepared in the same manner without compounds. The samples were incubated for 15 min at 30 °C prior to measurement. The assay for the human HSP90α–p23 binding inhibitor identification was performed analogously, with the exception that samples were incubated for 15 min at 37 °C prior to measurement. Since binding samples show both a high EmFRET as well as a reduction in donor emission (FLDD), we calculated the quotient (EmFRET/FLDD) to derive an improved signal separation and robustness. The nucleoside-mimetics library was obtained from Enamine (catalog No. NML-320-X-20, Enamine Ltd., Kyiv, Ukraine). Z′ and Z factors were calculated based on Zhang et al..

human HSP90β = biological target: human HSP90β; design: method as in PMID 16403413; settings: read-out: Kd of human HSP90β–p23 complex; cited from earlier work
human HSP90α = system: human HSP90α; design: method as in PMID 16403413; settings: cited from earlier work

p23: unlabeled human HSP90 co-chaperone p23 (Q15185), His6-tagged
effect on FRET emission (EmFRET) versus untreated control ([1]; 20 µM added, 1 µM HSP90α-mNeonGreen, 2 µM p23-mScarlet-I): significant reduction in FRET emission | IC50 ([1]; donor and acceptor both 1 µM, read-out: relative IC50, inhibition of HSP90α-mNeonGreen–p23-mScarlet-I binding): 1.4 ± 0.2 µM | hit identification (EmFRET/FLDD decrease of more than 3 SDs from binding control mean) (human HSP90α–p23 binding): identified as hits | Kd (human HSP90β): 1.5 µM | effect on HSP90 ATPase activity upon binding (human HSP90α): complete abrogation
